Laboratory results: the RNAGym collection of RNA variant scans (doi:10.7554/elife.80360)

B1: HDV Ribozyme (parent)
chain: GGCCGGCAUGGUCCCAGCCUCCUCGCUGGCGCCGGCUGGGCAACAUUCCGAGGGGACCGUCCCCUCGGUAAUGGCGAAUGGGACCCA

Variants of: B1
Test: self-cleavage, relative activity (ratio to wild type); higher = more cleavage; co-transcriptional

Going from GGCCGGCAUGGUCCCAGCCUCCUCGCUGGCGCCGGCUGGGCAACAUGCCGAGGGGACCGUCCCCUCGGUAUUGGCGAAUGGGACCCA [U47G A71U] to GGCCGGCAUGGUCCCAGCCUCCUCGCUGGCGCCGGCUGGGCAACAUGCCGAGGGGACCGUGCCCUCGGUAAUGGCGAAUGGGACCCA [U47G C61G], the self-cleavage falls from 1.18 to 0.554.

First: GGCCGGCAUGGUCCCAGCCUCCUCGCUGGCGCCGGCUGGGCAACAUGCCGAGGGGACCGUUCCCUCGGUAAUGGCGAAUGGGACCCA [U47G C61U]
Second: GGCCGGCAUGGUCCCAGCCUCCUCGCUGGCGCCGGCUGGGCAACAUGCCGAGGGGACUGUCCCCUCGGUAAUGGCGAAUGGGACCCA [U47G C58U]
The self-cleavage of the first is higher: 0.943 for the first, 0.942 for the second.

Going from GGCCGGCAUGGUCCCAGCCUCCUCGCUGGCGCCGGCUGGGCAACAUCCCGAGGGGACCGUCCCCUCGGUAAUGGCGAACGGGACCCA [U47C U79C] to GGCCGGCAUGGUCCCAGCCUCCUCGCUGGCGCCGGCUGGGCAACAUCCCGAGGGGACCGUCCCCUCGGUAAUGGCGAAAGGGACCCA [U47C U79A], the self-cleavage rises from 0.297 to 0.65.

Going from GGCCGGCAUGGUCCCAGCCUCCUCGCUGGCGCCGGCUGGGCAACAUCCCGAGGGGACCGUCCCCUCGGUAAUGGCGAAGGGGACCCA [U47C U79G] to GGCCGGCAUGGUCCCAGCCUCCUCGCUGGCGCCGGCUGGGCAACAUCCCGAGGGGACCGUCCCCUCGGUAAGGGCGAAUGGGACCCA [U47C U72G], the self-cleavage rises from 0.415 to 0.791.

Going from GGCCGGCAUGGUCCCAGCCUCCUCGCUGGCGCCGGCUGGGCAACAUCCCGAGAGGACCGUCCCCUCGGUAAUGGCGAAUGGGACCCA [U47C G53A] to GGCCGGCAUGGUCCCAGCCUCCUCGCUGGCGCCGGCUGGGCAACAUCCCGAGCGGACCGUCCCCUCGGUAAUGGCGAAUGGGACCCA [U47C G53C], the self-cleavage falls from 0.87 to 0.653.

Compared with GGCCGGCAUGGUCCCAGCCUCCUCGCUGGCGCCGGCUGGGCAACAUCCCGAGGGGACCGCCCCCUCGGUAAUGGCGAAUGGGACCCA [U47C U60C], GGCCGGCAUGGUCCCAGCCUCCUCGCUGGCGCCGGCUGGGCAACAUCCCAAGGGGACCGUCCCCUCGGUAAUGGCGAAUGGGACCCA [U47C G50A] is lower in self-cleavage: 1.05 for the first, 0.749 for the second.

First: GGCCGGCAUGGUCCCAGCCUCCUCGCUGGCGCCGGCUGGGCAACAUCCCGAGGGGACCGUCCCCUCGGUAAUGGCGAAUGGGACCGA [U47C C86G]
Second: GGCCGGCAUGGUCCCAGCCUCCUCGCUGGCGCCGGCUGGGCAACAUGCCGAGGGGACCGUCCCCUCGGUAAUGGCGAAUGGGACCCU [U47G A87U]
The self-cleavage of the first is lower: 0.675 for the first, 0.974 for the second.

Going from GGCCGGCAUGGUCCCAGCCUCCUCGCUGGCGCCGGCUGGGCAACAUGCCGAGGGGACCGUCCCCUCGGUAAUGGCGAGUGGGACCCA [U47G A78G] to GGCCGGCAUGGUCCCAGCCUCCUCGCUGGCGCCGGCUGGGCAACAUCCCGAGGGGACCGUCCCCUCGGUAAUGGCGAAUGGGAUCCA [U47C C84U], the self-cleavage falls from 1.19 to 0.475.

Compared with GGCCGGCAUGGUCCCAGCCUCCUCGCUGGCGCCGGCUGGGCAACAUCCCGAGGGGACCGUCCCCUCGGUAAUGGCGAAUGGGAGCCA [U47C C84G], GGCCGGCAUGGUCCCAGCCUCCUCGCUGGCGCCGGCUGGGCAACAUCCCGAGGGGACCGUCCCCUCGGUAAUGGCGAAUGCGACCCA [U47C G81C] is lower in self-cleavage: 0.604 for the first, 0.151 for the second.

First: GGCCGGCAUGGUCCCAGCCUCCUCGCUGGCGCCGGCUGGGCAACAUCCCGAGGGGACCGUCCCCACGGUAAUGGCGAAUGGGACCCA [U47C U65A]
Second: GGCCGGCAUGGUCCCAGCCUCCUCGCUGGCGCCGGCUGGGCAACAUCCCGAGGGGACCGUCCCCUCGGUAAUGGAGAAUGGGACCCA [U47C C75A]
The self-cleavage of the first is higher: 0.923 for the first, 0.214 for the second.

Compared with GGCCGGCAUGGUCCCAGCCUCCUCGCUGGCGCCGGCUGGGCAACAUCCCGAGGGGACCGUCCCCUCGAUAAUGGCGAAUGGGACCCA [U47C G68A], GGCCGGCAUGGUCCCAGCCUCCUCGCUGGCGCCGGCUGGGCAACAUCCCGAGGGGACCGUCCCCUCGUUAAUGGCGAAUGGGACCCA [U47C G68U] is lower in self-cleavage: 0.867 for the first, 0.462 for the second.

GGCCGGCAUGGUCCCAGCCUCCUCGCUGGCGCCGGCUGGGCAACAUCCCGAGGGGACCGUCCCCUCGGUAAUGGCGAAUGGGACGCA [U47C C85G] and GGCCGGCAUGGUCCCAGCCUCCUCGCUGGCGCCGGCUGGGCAACAUCCCGAGGGGACCGUCCCCUCGGUAAUGGCGAAUGGGACUCA [U47C C85U] are the same in self-cleavage: 0.831 for the first, 0.831 for the second.

Compared with GGCCGGCAUGGUCCCAGCCUCCUCGCUGGCGCCGGCUGGGCAACAUGCGGAGGGGACCGUCCCCUCGGUAAUGGCGAAUGGGACCCA [U47G C49G], GGCCGGCAUGGUCCCAGCCUCCUCGCUGGCGCCGGCUGGGCAACAUGCUGAGGGGACCGUCCCCUCGGUAAUGGCGAAUGGGACCCA [U47G C49U] is higher in self-cleavage: 0.87 for the first, 1.32 for the second.

First: GGCCGGCAUGGUCCCAGCCUCCUCGCUGGCGCCGGCUGGGCAACAUGCCGAGGGGACCGUCCCCUCGGUAAUGGCGAAUGGGCCCCA [U47G A83C]
Second: GGCCGGCAUGGUCCCAGCCUCCUCGCUGGCGCCGGCUGGGCAACAUCCCGAGGGGACCGUCCCCUCGGUAAUGGCGAAUUGGACCCA [U47C G80U]
The self-cleavage of the first is higher: 0.434 for the first, 0.29 for the second.

First: GGCCGGCAUGGUCCCAGCCUCCUCGCUGGCGCCGGCUGGGCAACAUGCCGAGGGGAUCGUCCCCUCGGUAAUGGCGAAUGGGACCCA [U47G C57U]
Second: GGCCGGCAUGGUCCCAGCCUCCUCGCUGGCGCCGGCUGGGCAACAUCCCGAGGGGACCGUCCCCUCGGUAAUGGCAAAUGGGACCCA [U47C G76A]
The self-cleavage of the first is higher: 0.985 for the first, 0.787 for the second.

Compared with GGCCGGCAUGGUCCCAGCCUCCUCGCUGGCGCCGGCUGGGCAACAUGCCGAGGGGACCGUCACCUCGGUAAUGGCGAAUGGGACCCA [U47G C62A], GGCCGGCAUGGUCCCAGCCUCCUCGCUGGCGCCGGCUGGGCAACAUGCCGAGGGGACCGUCCCCUCGGUAAUGGCGGAUGGGACCCA [U47G A77G] is lower in self-cleavage: 1.02 for the first, 0.923 for the second.
